# Publication PMC2644375
# How the values were obtained:
# Cul1 (CFP)–Rbx1 (human) = Cul1 (CFP)–Rbx1 (human) (UniProt Q13616); assay: FRET or BRET
# [1] = target: Nedd8 Cul1 (CFP)–Rbx1 (quantitatively neddylated) (UniProt Q13616); assay: FRET or BRET
# [2] = target: SCF^Skp2 (unmodified) (human), Q13616
Kd (Cul1 (CFP)–Rbx1 (human)),fold lowering of Kd against unmodified Cul1 (CFP)–Rbx1 [1],"Km for Cdc34 in ubiquitination of p27-Cdk2-CycE (multi-turnover, varying Cdc34) [2]",Molecule
82 nM,3 fold,–,LG-labeled Cdc34 (from UniProt P49427 1-236) (enzyme)
–,–,6.1 µM,"Cdc34, P49427 1-236 (enzyme) MARPLVPSSQKALLLELKGLQEEPVEGFRVTLVDEGDLYNWEVAIFGPPNTYYEGGYFKARLKFPIDYPYSPPAFRFLTKMWHPNIYETGDVCISILHPPVDDPQSGELPSERWNPTQNVRTILLSVISLLNEPNTFSPANVDASVMYRKWKESKGKDREYTDIIRKQVLGTKVDAERDGVKVPTTLAEYCVKTKAPAPDEGSDLFYDDYYEDGEVEEEADSCFGDDEDDSGTEES"
